Test results from publication PMC2936275 (Biochemistry, 2010).
Values joined by “and” are separate entries in the source; they are usually repeats but may differ in a detail not shown here. Identical values can stand only once.

Target: ONE-GC fragment aa 836-1110 (UniProt P51839 836-1110)
Test: SPR

Sequence of ONE-GC fragment aa 836-1110 (P51839 836-1110): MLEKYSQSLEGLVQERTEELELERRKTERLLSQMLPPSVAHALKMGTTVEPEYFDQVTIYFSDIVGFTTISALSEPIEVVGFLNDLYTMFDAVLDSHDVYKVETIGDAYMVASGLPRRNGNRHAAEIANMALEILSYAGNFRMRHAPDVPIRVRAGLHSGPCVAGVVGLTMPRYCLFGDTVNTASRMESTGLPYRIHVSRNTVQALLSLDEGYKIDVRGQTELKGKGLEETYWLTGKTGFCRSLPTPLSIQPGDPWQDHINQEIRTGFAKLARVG

B1: GCAP1 (guanylate cyclase activating protein 1), purified recombinant (natural protein, UniProt P46065 1-205, looked up)
chain: MGNIMDGKSVEELSSTECHQWYKKFMTECPSGQLTLYEFRQFFGLKNLSPWASQYVEQMFETFDFNKDGYIDFMEYVAALSLVLKGKVEQKLRWYFKLYDVDGNGCIDRDELLTIIRAIRAINPCSDSTMTAEEFTDTVFSKIDVNGDGELSLEEFMEGVQKDQMLLDTLTRSLDLTRIVRRLQNGEQDEEGASGRETEAAEADG
B1 was tested, and the EC50 was 500 nM and the Kd was 650 nM and 670 nM.
